Data reported in the domain aggregation screens of Martell et al. (2025).

Assay: soluble fraction after stress (log2 fold change); higher = more stays soluble; pooled small domains, quantitative proteomics
Conditions: stress: 50 degC
How it was run: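 The stress applied to every library was 50°C. These custom libraries of small protein domains were pooled and measured at high throughput with quantitative proteomics as the read-out. Aggregation propensity is expressed as the base-two logarithm of the fold change in how much of each protein remains soluble. The higher the value, the more of that protein stays in solution.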

Sequence	soluble fraction (log2)
HMLPLIEVPAVTGKYLTKAKSALKDAGLDTGDIKRVEHEEHGENYVLKQDPPAGTKVPFGTTVSLTVVAP	0.35
HMTTGGAEELGRTERKIVEQVGRGLSNREIAQVLGLSEGTVRNYLSTILGKLGLRDRTQLAIWSVQTGFAA	0.197
HMVELRDGSLPLARGSVGDLVAEVQRKLGVAADGIFGPQTERAVRAFQARAGLASDGIVGPLTWSALFGA	-0.282
HMNGLPDLSRYTGVSIVDGLASVGSDSSFAYRAKIAETLGISDYKGSAGQNLEMIRKLGGKV	-0.291
HMNILKAPMPGLILDVIVKESDLVKKGDPVIILEAMKMENILSSPVDGIVKEIKVNPQQTVEKNNTLIKFE	-0.0546
HMGTRHPLPYAYARANTVLLEDDGDRLVLWAPENVSLTALGEVLRRFDVDALERESSSTLANRIAVAYAG	-0.751
HMGSLVQTAMQAVTKHIHDNAMRVGDTLPGEGHFAETLGVSRAVMREAFGALAALKLIDVGNGRKPRVGR	-0.819
HMNPNEVQIPDLVNKTEEEAEQILKDLKLKLVVKSEEYDENIEKGKIISQDPTYKENYKIKEHSEISVIIS	0.214
HMSPILTPDQATKAYGKDGVLYIHSNKERTIYIYDVTGRTVRILEAVEGENQINGLEKGIYFLEGQKVAV	-0.233
HMDTRSSARKALDAVNLLLETYGAKAYQHSYEIAGRRQQFQTPGDFMAFRSRLMAEVATEENAARINA	0.152
HMNTVAGAISDLSFKVRGSEDIEKLNRLKALSIQAKLDVQGQEEAERLISELEAKYGSLGMTVDKVSGKIA	0.158
HMVKTANVAYSEFLKLVESDNISDVSIVGRTITGHLDDGTKFSTYTPPNDPSLIDKLTRKNVIIKSAPE	-0.00389
HMPTPLTPREHEIANLIAQGLSNREIADELVISPATAARHVANILAKLGFSSRTQVASWATRHD	-0.179
HMHALSVKFSDEAAKTLPYDILSALRDVLALDPRPGYSRDENKIYRFEYADYNISFSVKDKTLTVLSAEK	-0.384
HMLTEREQDTLNFIRQYIDEQGRSPLVSEIAKGLGIKSQGTTHRYIQALVDAGLLERHVGRTRGLHLT	0.0721
HMNETVTNQTVLDLLKEGFTSEEIIGAIENSSTRTITYDINFMRQLKAAGADVTLTTYLQKIAKKDM	-0.13
HMIERVLRTEEHIEAFAGEEVEAKLFAPIDGKKTLRGILGGIEDGRVILTVGDTEYRIEHAKISRLTTVFD	-0.122
HMNKSYTVPDVRGMTVEEAQEAEGVKDIFTVHVQGTRKTDEYQPGQIVEQDPIAGRTRKSNFVIEVYVAE	0.0819
HMSASAIYVRPKDVKEPEEVADYLSGVLELDREKLYKKITDKSQWIALIERKVDNDIAFDIRNKKFKGIEI	-0.0243
HMGYINLNVKVSPEWRDFWRSAYASVVAGYHQNKEHWNTIILDGSIPDKDIKRMIAESYDLVSD	-0.797
HMDKENVLQLQKDLLRLSVNALEKRYYQFSDILLLKYILPLVPKEISIDDQSRLRSLLSGIN	-0.238
HMITVPKVINMSETQARQTLDALGLNVTLSATQVMNDKIPYGYVAAQSYSAGKEVPAGTTIELTMSIGL	-0.945
HMGAATQADIARVQELLNRLGYDAGSPDGLMGPRTRDAILEYQLTEGLETTGTVTRETLASLEARL	0.0823
HMSNRFIQFRQRAIDWLNSDRDFNAGILLLEESGFKPGVVAKLKRHGVNGPEAKKRLKFLINELVKAWA	-0.0824
HMESGLPLPRFVSLGADEVNLRTGPGLRYPVAWVFVRKALPVEIVAEFEQWRRVRDFEGAEGWVHKAML	-0.36

Sequence	soluble fraction (log2)
HMDLDIQNYNLDEILELFKVSYDFDETELKKAHKMYLMTHPDKSNLNPNIFLFFVQAYDILRKLYEFR	-0.468
HMSHSVLIDISQLRIGMYIQLDVGWMHHPFPVSSFRVASLEQIEALRTLNLAQVRYFPAKSDPV	-3.6
HMAMDSGELEAIVDRLISEHPDDWAALTAGDDRERKKKSGFFVGEVMKATRGQADGRAVIELLASRSA	0.00605
HMPASTSIPYSDFISRVESGDVQEAKIGESAITGTYKDGSQFKTVKPPTLDTNLMPTLIQNKVNVVGVEP	0.18
HMDDKLKKLEEVFEMQEGTLTPDMRLDELEEWDSMTRLSLIVMMEDDYGKKVKRSEVMNYTTVQDIVDSME	-0.5
HMVADEGELLAIAREVVAANPKVFEDWKAGKQSAAQWFVGQIMKRTRGRANPQLALKLVTQALEEHAR	0.0775
HMSKKLLVLQTSDDAKAKDVLSQNGYQLDDGDKLSIIETEQTKMADVIKLLSDNAIDIEDVQHVH	0.217
HMLEASVYTAEKSGDRLDAFLAEQAGITRSYAQKLIEGGQVTLGGVVPKKNYKLSAGEQVELILPEN	0.0254
HMQSMEIDENEIPSIDKLSEYIEYFKRIYNALFDDKQLAITNIDVLERHFANNFNTLRFKMDE	-0.0595
HMDGFVFVMPIKETRMFSVNDERPLVGIVKYSNGEFEKEQLIGFRPNSEYEFIIEGQRLYRVPVNSITIK	-0.886
HMSFGWELYKGKEGIADTDLHPSGWIRIADKRVFAVSEGEFIEKGLEIIVLSVDGNRIVVRELK	-1.39
HMAATNVKVPDLKGWDYNNAVGKYGDKLSFVKKSIYSDSVSKGIIIYNARVGETVAQGTTIEVTVSLGPKG	-0.205
HMETSVDEVYKKIQAYIEAEDKHKPLSDQKLAEQLQSDGLKVSRRTVAKYREKLNIASSSKRKR	0.358
HMGSPVTAVMNRVLNETERQIVTLHVISGFKHREIAELLEKPVGTVLWTYNNALGKMRKAMQRE	-1.33
HMQEERDISFIKIHLEPGHPWRGRALRELMPLKDLLIVMVVRGEDTIVPNGDTRLEEGDLLVLAAYPFEE	-0.436
HMNKNNLRNVSSKIRKSRRVLNLSQAELSKKLDISPSYLNLIESGKRPITVPLLIKLGNILGISLKDL	-1.27
HMVHSEDLQDHKYVSQLGEVFLKENPNYENIKKSWGDHMVVIKKFGRYPHRNKILNRKSTPEELEFLKG	-0.0131
HMYSKVSFTVSVGMTSERVSASLKALGIIDDSAKFNRYLVSNGYSTRIKVGTVELQAGQSYAEIASKLV	-0.826
HMIRQETYLLVRKAVGALPVQMRKIIELAMQGKKNAEIAAQLSISEGTVHTLKKTAYKKLRDRLQE	-2.22
HMTQTDINQIETLVHEGNKLAAVKLLMDTAHIGLKEAKDIIDNFFLGKQTDLQAAVAQVQTR	0.123
HMLALKSGQVVVGTIIRRLDNTTAMLRIGNQLFETSFAKGLPKSNHILLRYDAMQGNRFIFTMVE	-0.191
HMSLPTSDWKRALSLFDEALSLPPDARDAWLAHTIAREPAVSPLLQKLLGAHRRVETNDILATLPR	-0.286
HMWTKKELWNAIAKLPKKQRTVVMMRIAQNLPYKDISEITGMSIGSAKVNYHHAVNSLKQWLS	-0.59
HMKAGRNTLARQMAILEVLQKDGRALVDDLAARFETTPQTIRKDLSALAEVNQISRFHGGAALVG	-0.0796
HMALLSDEERIATVFAARLGGYSHQEIYKLLQDRFGPSLPAAYSEKSVLTDLQTALSQVPSL	-0.208

Sequence	soluble fraction (log2)
HMTQGIDQISFSQFLDKVQSGEVTDVRISGSDITGTLKTGGKFETVAGNYEKIWDLLRENKVVFVVDSP	0.0436
HMASLIGEEKALQIALEHAGVALENVAYSQVKLENDDGRWEYDTEFYSGSKEYDYEIDASTGEILGYDHD	-0.0337
HMGQVPPLTRRETEIARLVSRGLSNKEIASTLVISPRTAEGHVEHILDKLGFSSRTQIATWLNEQTRNGK	-0.0938
HMNKWMQLASEEDKKLFNEAPKEIQDSITESAKFFDIRTKADVDTFWANTGLRQMKQQAMLNESFVNEY	-0.0275
HMKYEFEFPYWSNKEAKHMIVTINYPNGTRATASIQDNDGSNPDYKRIMEEFGEEQIDANTEEGLKRR	-0.0595
HMDELPKDILRSFGLPDKPWAMELLRNLRRDGFALDGETARAYAEMAAMKPPRTDARQWMTAADVAYRRG	-0.151
HMTGESIPFSKFLSEVDSGRVINVEIQGNNISGLLSDGNKFKTYSPNYPNLVEILSEKEVSIVATPLE	0.0525
HMEAGTEYVERAADYIRSHFQEDLTVSKLALYVGLNRSYLTTVFQNTLHVSPQQFLMRFRMERAAQLLD	0.0719
HMELSTQERIQILLEILNQREIISFSQTLRKKEGKKGVVVTFLASLELAKDGYVTLVQNKSDQIYLRSN	-0.7
HMKITTKNYFKAIAEVGVENLPAALKKSHDLIEERTSKGADWSVYEHDAEVRRVFDLTFEKLFEFIDQ	-0.363
HMEFTFTLPRGYIDDTGMIHREGTMRLANAADEILPLKDPRVQQNPGYLTIILLARVITKLGSL	0.277
HMEIESAHAQVLGVREIAASGATQHWIAFRFSDGHQRELLATPSQADVIFRGQQGVVHFAGDRLTGWIPE	-0.191
HMVKETNYSFFLKQIDAGTVEQVQIEDTEIKFKVSTADGKEQVYSTVRVEDPDLVDRLYSKGNIDFTGN	-0.0595
HMDPFVILGISKDSSQSEILEAYKTKRAYYQEHVFDEGDQGAQAARMLGQLDDAYQQAMELSHE	-0.062
HMAVTNLTAKQISDTRWRVTWDSTLASPTYYVYRDGLLMMQTRQELYEFDAARGEQVQIDVLDDMAAAPAE	-0.741
HMQSREISYSDFVASVERGEVATVILDGENIRFKGGDNVEYVTVRPADTNVTDLLIENQVVVRAEK	0.155
HMLSTRERMSSLMAQLQVQQFMPFHRLFTISEGRMGVIVTFLAMMELVKENLIKLIQAQEYGPIHVSLG	0.0428
HMSDLTEVIVKFSGDIQPIRQDLDAQVEILLKGYAIITLSPNKIGRLYSYPQIESIEIPKNLYI	-1.26
HMTIERVKIKETPTGWLRVRETPDNNGSEIGRANVGEIYELLGSKGEWYHIVYKGKQGFISTKYAEKVL	-0.22
HMNFFQEIGNSILIELNKKNWTQSMFAHKIGVSDEVFKQIVQGKKALNAVEIAKIANTLDVDPEKLLRK	-0.191
HMAQELPYEKVTMNGKMFYVYHVKAGEGLYLISRTFSVNADEILKFNPSIENGLKSGQVLYIPIK	-0.0691
HMSHPNAPLTPEGRRRLAVLIVEDGWTIRRAAERFQVSPATASKWARRYRAGESLTDRSSRP	-1.58
HMTEVPSLSSLKIGDLIFYRNNKGAIAHSAIITSFYNGRPFISQHTFNALNITYVKDWASKMHFIKIW	-0.0353
HMNDENIIIEEIKYFIKSNQIKEQEKLPSERNLSELFTVSRFSLRKALRHLVDTGYLYVKDKSGYYYQGD	-2.47
HMNTRWDDAAQTWLRKVIEQQPVLVQISAAKRLRDQAEQRAREAGEEVVTEQHVKRAGLELGFGEP	0.0799
